Numbering of substitutions follows the chain as printed. Names and notes keep the numbering of the source. Like-named read-outs stand apart in the source and are kept apart here. Values belong to the molecule of their own block, whether it stands above or below them.
Legend:
Test in all cases: time-resolved fluorescence immunoassay (TR-FIA); plate coated with monoclonal anti-PBX1; PBX1 pre-incubated with PREP1 or MEIS1 for 1 h on ice, 10 µg/mL in 1% BSA PBS, 1 h at room temperature on the plate; detected with anti-PREP1 or biotinylated anti-MEIS1/2 and Eu^3+ conjugates; normalised to the wild-type protein taken as 1
[1] = target: T1, PBX1_(1-430), wild-type recombinant (human, UniProt P40424 1-430)
T1 construct: also called wild-type PBX1; purified recombinant human PBX1; source: E. coli, purified
T1 sequence (looked up): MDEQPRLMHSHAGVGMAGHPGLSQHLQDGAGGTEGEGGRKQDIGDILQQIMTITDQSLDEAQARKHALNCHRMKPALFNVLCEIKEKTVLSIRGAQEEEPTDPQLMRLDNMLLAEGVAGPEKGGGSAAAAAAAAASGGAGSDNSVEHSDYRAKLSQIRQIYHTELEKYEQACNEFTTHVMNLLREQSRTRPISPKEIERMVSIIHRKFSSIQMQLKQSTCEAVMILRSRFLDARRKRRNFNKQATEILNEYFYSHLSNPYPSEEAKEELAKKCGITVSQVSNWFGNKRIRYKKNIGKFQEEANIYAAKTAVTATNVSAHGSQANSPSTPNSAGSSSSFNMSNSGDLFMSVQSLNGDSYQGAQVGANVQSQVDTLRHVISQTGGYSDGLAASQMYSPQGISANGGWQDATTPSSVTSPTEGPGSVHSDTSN

PBX1 Δ77-84 = target: T2, PBX1 Δ77-84 (human, UniProt P40424 1-430, Δ77−84); conditions: both partners purified
T2 construct: PBX1, residues 1-430, with an internal deletion; source: E. coli, purified
T2 sequence (looked up): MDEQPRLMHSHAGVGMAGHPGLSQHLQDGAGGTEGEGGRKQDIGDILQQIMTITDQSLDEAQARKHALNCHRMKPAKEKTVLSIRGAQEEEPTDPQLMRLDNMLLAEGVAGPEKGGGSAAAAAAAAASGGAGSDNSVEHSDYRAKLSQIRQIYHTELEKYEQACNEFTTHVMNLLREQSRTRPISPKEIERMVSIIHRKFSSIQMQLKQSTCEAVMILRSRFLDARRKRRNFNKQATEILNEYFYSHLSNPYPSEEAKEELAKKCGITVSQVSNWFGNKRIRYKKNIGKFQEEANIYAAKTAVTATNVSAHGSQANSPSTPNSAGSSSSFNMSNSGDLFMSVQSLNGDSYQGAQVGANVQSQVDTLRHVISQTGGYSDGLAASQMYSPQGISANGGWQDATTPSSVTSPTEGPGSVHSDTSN

PBX1 Δ105-113 = target: T3, PBX1 Δ105-113 (human, UniProt P40424 1-430, Δ105-113); conditions: both partners purified
T3 construct: PBX1, residues 1-430, with an internal deletion; source: E. coli, purified
T3 sequence (looked up): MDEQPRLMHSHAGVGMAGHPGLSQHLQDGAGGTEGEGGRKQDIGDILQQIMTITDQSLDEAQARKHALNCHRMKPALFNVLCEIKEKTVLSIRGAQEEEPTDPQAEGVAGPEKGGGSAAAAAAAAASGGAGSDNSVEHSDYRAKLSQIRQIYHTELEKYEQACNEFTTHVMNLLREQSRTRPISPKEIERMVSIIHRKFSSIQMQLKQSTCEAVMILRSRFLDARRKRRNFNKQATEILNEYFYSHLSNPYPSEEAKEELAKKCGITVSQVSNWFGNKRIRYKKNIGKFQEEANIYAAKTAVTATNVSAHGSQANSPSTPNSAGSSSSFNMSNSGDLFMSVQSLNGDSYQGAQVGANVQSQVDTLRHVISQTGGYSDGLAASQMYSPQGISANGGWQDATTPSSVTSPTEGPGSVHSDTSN

PBX1Δ43-55 = target: T4, PBX1Δ43-55 (human, UniProt P40424 1-430, Δ43-55); conditions: both partners purified
T4 construct: PBX1, residues 1-430, with an internal deletion; source: E. coli, purified
T4 sequence (looked up): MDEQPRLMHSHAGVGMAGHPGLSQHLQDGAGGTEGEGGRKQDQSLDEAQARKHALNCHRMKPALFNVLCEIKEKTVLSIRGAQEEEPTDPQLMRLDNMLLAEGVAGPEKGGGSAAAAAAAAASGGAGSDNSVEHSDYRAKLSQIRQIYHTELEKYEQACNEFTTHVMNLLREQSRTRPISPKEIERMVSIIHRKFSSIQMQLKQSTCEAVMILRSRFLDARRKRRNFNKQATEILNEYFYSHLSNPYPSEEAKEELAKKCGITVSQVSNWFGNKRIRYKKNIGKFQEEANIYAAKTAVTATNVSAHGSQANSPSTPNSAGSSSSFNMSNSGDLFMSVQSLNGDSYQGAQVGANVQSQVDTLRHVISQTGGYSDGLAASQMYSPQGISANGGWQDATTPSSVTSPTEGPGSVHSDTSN

PBX1Δ197-204 (human) = PBX1Δ197-204 (human) (UniProt P40424)
[2] = target: T5, PREP1_(1-436), wild-type recombinant (TR-FIA) (UniProt P55347 1-436); conditions: both partners purified
T5 construct: also called wild-type PREP1; PKNOX1; source: E. coli, purified
T5 sequence (looked up): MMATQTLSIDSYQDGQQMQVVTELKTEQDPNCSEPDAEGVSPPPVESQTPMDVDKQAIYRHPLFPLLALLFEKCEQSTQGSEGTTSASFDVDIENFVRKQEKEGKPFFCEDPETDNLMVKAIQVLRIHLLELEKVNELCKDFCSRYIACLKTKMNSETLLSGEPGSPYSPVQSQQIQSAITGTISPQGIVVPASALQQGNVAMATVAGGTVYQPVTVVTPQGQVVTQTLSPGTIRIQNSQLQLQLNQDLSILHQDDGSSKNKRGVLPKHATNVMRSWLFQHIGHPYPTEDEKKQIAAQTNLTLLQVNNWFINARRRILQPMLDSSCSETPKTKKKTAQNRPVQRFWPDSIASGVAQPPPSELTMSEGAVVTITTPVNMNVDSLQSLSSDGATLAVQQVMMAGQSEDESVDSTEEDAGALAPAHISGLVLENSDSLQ

binding relative to wild type [1]: 30%
Molecule: PREP1 HR2m (I122A/L125A/L129A/L132A), TR-FIA (from UniProt P55347 1-436) (natural protein)

binding relative to wild type (PBX1 Δ77-84): 35%
binding result (PBX1 Δ105-113): binds
binding relative to wild type (PBX1Δ43-55): 60%
binding relative to wild type (PBX1Δ197-204 (human)): 45%
B1: MEIS1_(1-390), wild-type recombinant (TR-FIA) (natural protein, UniProt O00470 1-390, looked up)
chain: MAQRYDDLPHYGGMDGVGIPSTMYGDPHAARSMQPVHHLNHGPPLHSHQYPHTAHTNAMAPSMGSSVNDALKRDKDAIYGHPLFPLLALIFEKCELATCTPREPGVAGGDVCSSESFNEDIAVFAKQIRAEKPLFSSNPELDNLMIQAIQVLRFHLLELEKVHELCDNFCHRYISCLKGKMPIDLVIDDREGGSKSDSEDITRSANLTDQPSWNRDHDDTASTRSGGTPGPSSGGHTSHSGDNSSEQGDGLDNSVASPSTGDDDDPDKDKKRHKKRGIFPKVATNIMRAWLFQHLTHPYPSEEQKKQLAQDTGLTILQVNNWFINARRRIVQPMIDQSNRAVSQGTPYNPDGQPMGGFVMDGQQHMGIRAPGPMSGMGMNMGMEGQWHYM
notes: MEIS1, full length, residues 1-390; also called wild-type MEIS1; source: E. coli, purified

binding result [2]: binds
B2: PBX1 L112A (natural protein, human, UniProt P40424 1-430, looked up)
chain: T1 sequence (looked up) with L112A
notes: PBX1, residues 1-430; single alanine substitution; source: E. coli, purified

binding result [2]: binds
B3: PBX1 V80A/L81A (natural protein, human, UniProt P40424 1-430, looked up)
chain: T1 sequence (looked up) with V80A, L81A
notes: PBX1, residues 1-430; source: E. coli, purified

binding relative to wild type ([1]; both partners purified): 40%
B4: PREP1 L132A (natural protein, UniProt P55347 1-436, looked up)
chain: T5 sequence (looked up) with L132A
notes: PREP1 (PKNOX1), residues 1-436

binding result [2]: binds
B5: PBX1 V80A (natural protein, human, UniProt P40424 1-430, looked up)
chain: T1 sequence (looked up) with V80A
notes: as for B3

From paper PMC7545097, “Mapping the native interaction surfaces of PREP1 with PBX1 by cross-linking mass-spectrometry and mutagenesis” (Scientific Reports, 2020)
